Results from patent US20170348438A1 (CASE WESTERN RESERVE UNIVERSITY, published 2017).
Positions of bridges follow the written chain, without caps; N, C: chain ends. Primed or numbered codes have the meaning given here. No end group written: not given here. PEG3′ = not defined here

T1: MRP-8/14 heterodimer (untagged MRP-8 premixed 1:1 with His-tagged MRP-14) (UniProt P05109 1-93; P06702 1-114)
T1 construct: Formed by mixing equal molar amounts for 3 hours with 0.1 mM CaCl2; only MRP-14 has a His tag; not shown: His tag
T1 sequence 1: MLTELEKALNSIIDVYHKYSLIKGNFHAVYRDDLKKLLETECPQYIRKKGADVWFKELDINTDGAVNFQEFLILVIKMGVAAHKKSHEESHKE
T1 sequence 2: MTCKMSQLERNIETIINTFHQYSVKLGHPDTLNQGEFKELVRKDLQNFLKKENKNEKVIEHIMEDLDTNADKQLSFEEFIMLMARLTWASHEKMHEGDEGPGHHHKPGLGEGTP

B1: M13 phage displaying MTP8 (ACPHHPQKHC) (peptide)
peptide: ACPHHPQKHC
modifications: disulfide 2-10 (inferred); also: displayed on M13 phage coat protein fusion
notes: Tested as whole phage in the ELISA; cyclic library; not shown: rest of the M13 coat protein fusion of the Ph.D.-C7C library (New England Biolabs); not described
B2: M13 phage displaying MTP7 (ACYGKPEHHC) (peptide)
peptide: ACYGKPEHHC
modifications: disulfide 2-10 (inferred); also: displayed on M13 phage coat protein fusion
notes: as for B1
B3: M13 phage displaying MTP10 (ACRPKNNHSC) (peptide)
peptide: ACRPKNNHSC
modifications: disulfide 2-10 (inferred); also: displayed on M13 phage coat protein fusion
notes: as for B1
B4: M13 phage displaying MTP2 (ASSHIHH) (peptide)
peptide: ASSHIHH
notes: Tested as whole phage in the ELISA; not shown: rest of the M13 coat protein fusion of the Ph.D.-7 library (New England Biolabs); not described
B5: M13 phage displaying MTP5 (ACNSHRHGAC) (peptide)
peptide: ACNSHRHGAC
modifications: disulfide 2-10 (inferred); also: displayed on M13 phage coat protein fusion
notes: as for B1
B6: M13 phage displaying MTP1 (TTFHHHK) (peptide)
peptide: TTFHHHK
notes: as for B4
B7: M13 phage displaying MTP9 (ACPTGLHHAC) (peptide)
peptide: ACPTGLHHAC
modifications: disulfide 2-10 (inferred); also: displayed on M13 phage coat protein fusion
notes: as for B1
B8: M13 phage displaying MTP6 (ACNSVHQHHC) (peptide)
peptide: ACNSVHQHHC
modifications: disulfide 2-10 (inferred); also: displayed on M13 phage coat protein fusion
notes: as for B1
B9: Scrambled peptide MDPHAHNGGGS (peptide)
peptide: MDPHAHNGGGS-NH2
notes: Synthetic control peptide with a GGGS spacer; also called scrambled control
B10: M13 phage displaying MTP3 (HNHMADP) (peptide)
peptide: HNHMADP
notes: as for B4
B11: M13 phage displaying MTP4 (ACKAPAHHHC) (peptide)
peptide: ACKAPAHHHC
modifications: disulfide 2-10 (inferred); also: displayed on M13 phage coat protein fusion
notes: as for B1
B12: His-tagged MRP-14 (other)
chain: T1 sequence 2
notes: Commercial His-tagged protein, captured on a Ni-NTA chip for SPR and coated on plates for the phage ELISA; The position of the His tag is unknown; its order in the chain is arbitrary; not shown: His tag

What was measured:
bovine serum albumin = molecular target: T2, bovine serum albumin (bovine, UniProt P02769 25-607); experiment: phage ELISA on BSA-blocked wells, HRP anti-M13 antibody, ABTS, absorbance 410 nm
T2 construct: Background control in the phage ELISA; also called BSA
T2 sequence (P02769 25-607 limits assumed): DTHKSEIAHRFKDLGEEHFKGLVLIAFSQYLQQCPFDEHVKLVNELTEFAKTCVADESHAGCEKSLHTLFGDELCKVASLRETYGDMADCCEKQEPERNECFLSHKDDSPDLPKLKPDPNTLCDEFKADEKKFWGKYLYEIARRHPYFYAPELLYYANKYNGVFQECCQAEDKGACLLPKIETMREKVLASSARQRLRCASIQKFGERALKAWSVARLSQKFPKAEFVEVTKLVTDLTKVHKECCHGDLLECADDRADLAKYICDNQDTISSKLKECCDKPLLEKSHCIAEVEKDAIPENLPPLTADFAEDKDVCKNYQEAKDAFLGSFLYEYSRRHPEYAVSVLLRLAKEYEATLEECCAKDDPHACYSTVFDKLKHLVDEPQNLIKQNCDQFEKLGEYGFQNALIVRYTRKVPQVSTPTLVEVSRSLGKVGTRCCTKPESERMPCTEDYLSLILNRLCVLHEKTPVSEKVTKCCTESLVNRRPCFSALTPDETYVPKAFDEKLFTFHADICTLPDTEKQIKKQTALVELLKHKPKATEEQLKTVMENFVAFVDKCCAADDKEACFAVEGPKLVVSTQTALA

His-tagged MRP-14 [1] = molecular target: B12; experiment: SPR, His-tagged MRP-14 on Ni-NTA chip, saturation binding curve fit
His-tagged MRP-14 [2] = molecular target: B12; experiment: SPR, His-tagged MRP-14 on Ni-NTA chip, peptide injected
[3] = molecular target: T3, TMV-MTP6 (tobacco mosaic virus particle displaying MTP6) (tobacco mosaic virus, UniProt P69687 2-159, alkyne handle (3-ethynylaniline diazonium) on exterior tyrosine residues; about 20% of the coat proteins carry MTP6; C-terminal 3-monomer PEG spacer and azide, joined by CuAAC to an alkyne on …); experiment: SPR, His-tagged MRP-14 on Ni-NTA chip, kinetic curve fit
T3 construct: Whole virus nanoparticle (with its RNA) with about 400 MTP6 peptides on 2130 coat proteins
T3 sequence (P69687 2-159): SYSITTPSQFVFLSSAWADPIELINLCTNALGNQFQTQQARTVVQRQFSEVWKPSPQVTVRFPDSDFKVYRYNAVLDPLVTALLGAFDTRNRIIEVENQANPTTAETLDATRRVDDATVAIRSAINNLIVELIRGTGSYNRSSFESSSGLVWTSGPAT

[4] = molecular target: T3, TMV-MTP6 (tobacco mosaic virus particle …); experiment: SPR, His-tagged MRP-14 on Ni-NTA chip, kinetic curve fit, concentration as MTP6 peptide
[5] = molecular target: T1, MRP-8/14 heterodimer (untagged MRP-8 …); experiment: SPR, MRP-8/14 held on Ni-NTA chip by the His tag of MRP-14, saturation binding curve fit; MRP-8/14 heterodimer on the chip, not MRP-14 alone

| Binder | binding result (bovine serum albumin) | also measured |
| --- | --- | --- |
| B1 | no binding (tested: 2.5E+11 pfu/mL) |  |
| ACNSVHQHHCGGGS-{PEG3′-azide} (disulfide 2-10 (inferred)) [MTP6-N3 (azide-functionalized MTP6)] |  | Kd (His-tagged MRP-14 [1]): 55.7 µM |
| ASSHIHHGGGS-NH2 [MTP2 synthetic peptide ASSHIHHGGGS] |  | Kd (His-tagged MRP-14 [1]): 77.6 µM |
| B2 | no binding (tested: 2.5E+11 pfu/mL) |  |
| B3 | no binding (tested: 2.5E+11 pfu/mL) |  |
| B4 | no binding (tested: 2.5E+11 pfu/mL) |  |
| B5 | no binding (tested: 2.5E+11 pfu/mL) |  |
| B6 | no binding (tested: 2.5E+11 pfu/mL) |  |
| B7 | no binding (tested: 2.5E+11 pfu/mL) |  |
| B8 | no binding (tested: 2.5E+11 pfu/mL) |  |
| B9 |  | binding result (His-tagged MRP-14 [2]): no binding (tested: 6.25 µM to 100 µM) |
| B10 | no binding (tested: 2.5E+11 pfu/mL) |  |
| B11 | no binding (tested: 2.5E+11 pfu/mL) |  |
| B12 |  | koff [3]: 0.000686 s⁻¹; kon [3]: 910 M⁻¹ s⁻¹; Kd [4]: 0.754 µM |
| ACNSVHQHHCGGGS-NH2 (disulfide 2-10 (inferred), lead peptide) [MTP6 synthetic peptide ACNSVHQHHCGGGS] |  | Kd (His-tagged MRP-14 [1]): 39.6 µM; Kd [5]: 57.6 µM |
| HNHMADPGGGS-NH2 [MTP3 synthetic peptide HNHMADPGGGS] |  | Kd (His-tagged MRP-14 [1]): 117 µM |
